Molecular target: microtubules (polymerized tubulin) (UniProt Q6B856)
Sequence (Q6B856 whole entry, looked up): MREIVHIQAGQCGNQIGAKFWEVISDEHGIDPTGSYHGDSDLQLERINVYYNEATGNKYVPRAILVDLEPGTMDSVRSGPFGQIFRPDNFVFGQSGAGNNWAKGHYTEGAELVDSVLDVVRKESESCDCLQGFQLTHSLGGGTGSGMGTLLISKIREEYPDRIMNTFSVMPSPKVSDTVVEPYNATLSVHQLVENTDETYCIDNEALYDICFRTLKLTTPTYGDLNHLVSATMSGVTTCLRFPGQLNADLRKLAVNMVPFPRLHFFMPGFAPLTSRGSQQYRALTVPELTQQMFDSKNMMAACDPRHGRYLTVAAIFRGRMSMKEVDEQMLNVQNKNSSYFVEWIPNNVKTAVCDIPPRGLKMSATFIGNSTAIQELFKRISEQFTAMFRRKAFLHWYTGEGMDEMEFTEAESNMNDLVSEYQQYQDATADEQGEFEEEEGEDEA

FRAP, t½ of recovery of GFP-tagged full-length G2L3 on MTs in NIH3T3 cells: 14.9 s
B1: GAS2-like 3 (G2L3), full length, GFP-tagged (natural protein)
chain: MQPAIQVWFGEDLPLSPRSPLTPRHGPGLANVCQYDEWIAVRHEATLLPMQEDLSIWLSGLLGIKVKAEKLLEELDNGVLLCQLIDVLQNMVKTCNSEESGNFPMRKVPCKKDAASGSFFARDNTANFLHWCRDIGVDETYLFESEGLVLHKDPRQVYLCLLEIGRIVSRYGVEPPVLVKLEKEIELEETLLNTSGPEDSISIPKSCCRHEELHEAVKHIAEDPPCSCSHRFSIEYLSEGRYRLGDKILFIRMLHGKHVMVRVGGGWDTLQGFLLKYDPCRILQFATLEQKILAFQKGVSNESVPDSPARTPQPPEMNPLSAVNMFQKQNSKPSVPVSIPKSKEKQGRPPGALVPASSLKGGNLGSMSVRSKLPNSPAASSHPKLKSSKGITKKPQAPSNNASSSLASLNPVGKNTSSPALPRTAPCISESPRKCISSPNTPKAKVIPAQNSADLPESTLLPNKCSGKTQPKYLKHNHISSRDNAVSHLAAHSNSSSKCPKLPKANIPVRPKPSFQSSAKMTKTSSKTIATGLGTQSQPSDGAPQAKPVPAQKLKSALNLNQPVSVSSVSPVKATQKSKDKNIVSATKKQPQNKSAFQKTGPSSLKSPGRTPLSIVSLPQSSTKTQTAPKSAQTVAKSQHSTKGPPRSGKTPASIRKPPSSVKDADSGDKKPTAKKKEDDDHYFVMTGSKKPRK

— paper PMC3137072
